{"source": "patent US20120288474A1", "about": "“COMPOSITION FOR TREATMENT OF CXCL8-MEDIATED LUNG INFLAMMATION” (PROTAFFIN BIOTECHNOLOGIE AG, priority 2009, published 2012)", "molecules": {"B1": {"name": "PA401: del6F17KF21KE70KN71K IL-8 mutant; modified IL-8 with increased GAG binding affinity and down-regulated GPCR activity (protein, UniProt P10145 23-99, looked up, variant del1-6 F17K F21K E70K N71K)", "Interleukin-8": "AVLPRCQCIKTYSKPKHPKKIKELRVIESGPHCANTEIIVKLSDGRELCLDPKENWVQRVVEKFLKRAKKS"}}, "type_in_all_cases": "in vivo", "key": {"[1]": {"tested_on": "C57BL/6J female mice intranasal instilled with LPS", "assay": "LPS-induced acute lung inflammation, intranasal LPS instillation (Example 1)", "experimental": "To assess potential of PA401 as anti-inflammatory in models of acute lung neutrophilia, a dose-response study with subcutaneous administration of PA401 at doses of 4, 40, 200 and 400 μg/Kg in C57BL/6J female mice intranasal instilled with LPS (0.3 μg/mouse, serotype […]) was performed. Sham instilled (saline) and Dexamethasone 3 mg/kg s.c. (administered at t=−1 h before LPS instillation) treated animals were used as controls. Bronchoalveolar lavage (BAL) was performed 4 h post LPS instillation and total cell count on BAL samples, as well as differential cell count on BAL cytospin were measured."}, "[2]": {"tested_on": "male Balb/c mice aerosolized with LPS", "assay": "LPS aerosol acute lung inflammation, s.c. or i.v. treatment (Example 2)", "experimental": "A second study was performed using a slightly different model, which imply a different mouse strain and gender (male Balb/c instead of C57BL/6) a different LPS strain and serotype (Salmonella enterica instead of E. Coli) and a different LPS administration (aerosol—3.5 mg/7 mL over 30 min—instead of intranasal). PA401 doses of 4, 40 and 400 μg/kg were administered either by s.c. or i.v. route at t=−5 and t=+3 h from LPS exposure. BAL total and differential cell count were evaluated at t=8 h, a later time point compared to the previous study.\nSaline aerosolized mice and mice receiving an intra tracheal administration of Dexamethasone (20 μg/20 ∥l/mouse at t=−1 h) were used as control."}, "[3]": {"tested_on": "C57BL/6J female mice exposed to cigarette smoke", "assay": "Acute model of cigarette smoke induced lung inflammation, four-day exposure (Example 3)", "experimental": "Lung inflammation was induced in C57BL/6J female mice (a susceptible strain) by exposure to cigarette smoke of 4 to 6 cigarette over a four-day period. Dose response activity of subcutaneous PA401 treatment at the doses of 4, 40 and 400 μg/kg administered at t=+30 min and t=+6 h from smoke exposure, on cell infiltrates on bronchoalveolar lavages was evaluated 24 h after last cigarette smoke exposure. Air exposed, and Roflumilast (5 mg/kg oral) treated animals serve as controls."}, "[4]": {"tested_on": "C57BL/6J female mice exposed to cigarette smoke", "assay": "Sub-chronic model of cigarette smoke induced lung inflammation, eleven-day exposure, dose frequency (Example 4)", "experimental": "In this study lung inflammation was induced in C57BL/6J female mice by exposure to cigarette smoke of 4 to 6 cigarettes over an eleven-day period. Dose frequency activity of subcutaneous PA401 treatment at the optimal dose of 400 μg/kg, based on the study in example 3, administered at t=+30 min and t=+6 h from smoke exposure (twice a day: b.i.d.), once daily at +3 h (q.d) and every other day (q.o.d) at +3 h, on cell infiltrates on bronchoalveolar lavages was evaluated 24 h after last cigarette smoke exposure. Air exposed, and Roflumilast (5 mg/kg oral) treated animals serve as controls."}, "[5]": {"tested_on": "C57BL/6J female mice exposed to cigarette smoke", "assay": "Sub-chronic model of cigarette smoke induced lung inflammation, eleven-day exposure, 400 vs 40 μg/kg (Example 5)", "experimental": "In this study lung inflammation was induced in C57BL/6J female mice by exposure to cigarette smoke of 4 to 6 cigarettes over an eleven-day period. PA401 at the dose of 400 μg/kg daily subcutaneous was compared to the dose of 40 μg/kg daily subcutaneous. Treatment was performed at t+3 h and effects on cell infiltrates on bronchoalveolar lavages were evaluated 24 h after last cigarette smoke exposure. Air exposed, Roflumilast (5 mg/kg oral) treated animals as well as animals treated with the CXCR2 antagonist SCH527123 (10 mg/kg twice a day oral-total daily dose 20 mg/kg) serve as controls."}, "[6]": {"tested_on": "male Balb/c mice exposed to LPS aerosol", "assay": "LPS aerosol lung inflammation, intra-tracheal local delivery to the lung (Example 6)", "experimental": "In this experiment lung inflammation was induced by the delivery of LPS by aerosol (Salmonella enterica, 3.5 mg/7 mL over 30 min) in male Balb/c mice. PA401 was administered intra-tracheally (i.t.) using a MicroSprayer (FJM-250 syringe; PennCentury), a device that allows delivery of a plume of aerosol (mass median diameter 16-22 μm) directly into the lungs. PA401 i.t. administration was performed at the doses of 100, 40, 10 and 4 μg/kg either 1 h before LPS exposure, or 1 h after the end of LPS exposure. Bronchoalveolar lavage (BAL) was performed 8 h post LPS exposure and total cell and neutrophil numbers were measured. Dexamethasone 20 μg/20 μl mouse i.t. was used as reference compound."}, "[7]": {"conditions": "s.c. 4-400 μg/Kg, BAL cytospin 4 h post LPS"}, "[8]": {"conditions": "400 μg/kg s.c., all treatment frequencies (b.i.d., q.d., q.o.d.)"}, "[9]": {"conditions": "400 μg/kg s.c., b.i.d. and q.d."}, "[10]": {"conditions": "i.t. 100, 40, 10 and 4 μg/kg, 1 h before or 1 h after LPS, BAL 8 h post LPS"}}, "data": [{"molecule": "B1", "values": [{"measurement": "inhibition of cell infiltration in the BAL compared with Dexamethasone 3 mg/kg", "setting": "[1]; PA401 200 and 400 μg/kg s.c., Dexamethasone 3 mg/kg s.c.", "result": "comparable to that obtained with the treatment with a high dose of Dexamethasone"}, {"measurement": "total number of cells infiltrated in lung as assessed in the BAL fluid", "setting": "[1]; s.c. 4, 40, 200 and 400 μg/Kg, BAL 4 h post LPS instillation", "result": "dose-dependent reduction"}, {"measurement": "number of lymphocytes in BAL", "setting": "[1]; [7]", "result": "significant reduction"}, {"measurement": "number of neutrophils in BAL", "setting": "[1]; [7]", "result": "significant reduction"}, {"measurement": "lowest dose with significant effect on neutrophils and lymphocytes", "setting": "[1]; s.c., BAL 4 h post LPS", "result": 4, "unit": "µg/kg"}, {"measurement": "number of total cells in the BAL", "setting": "[2]; 4, 40 and 400 μg/kg s.c. or i.v. at t=-5 and t=+3 h from LPS, BAL at t=8 h", "result": "highly significant reduction"}, {"measurement": "neutrophils count in the BAL", "setting": "[2]; 4, 40 and 400 μg/kg s.c. or i.v., BAL at t=8 h", "result": "reduction"}, {"measurement": "inhibitory effect compared with intra tracheal dexamethasone", "setting": "[2]; PA401 i.v., Dexamethasone 20 μg/mouse i.t. at t=-1 h", "result": "reaching the same inhibitory effects of intra tracheal administration of dexamethasone"}, {"measurement": "activity by route of administration (intravenous vs subcutaneous)", "setting": "[2]; i.v. vs s.c., BAL at t=8 h", "result": "more significant when administered by intravenous than by subcutaneous route"}, {"measurement": "cell subtypes (neutrophil, macrophage, epithelial cells, lymphocyte) in BAL at the other two doses", "setting": "[3]; 4 and 40 μg/kg s.c.", "result": "Significant effect on most of these cell subtypes"}, {"measurement": "total cell infiltrates in BAL", "setting": "[3]; 40 and 400 μg/kg s.c.", "result": "Highly significant effect"}, {"measurement": "inhibitory effect compared with Roflumilast 5 mg/kg", "setting": "[3]; PA401 400 μg/kg s.c., Roflumilast 5 mg/kg oral", "result": "comparable of that obtained with Roflumilast 5 mg/kg"}, {"measurement": "epithelial cells numbers in BAL", "setting": "[3]; highest dose (400 μg/kg s.c.)", "result": "significantly reduced"}, {"measurement": "lymphocyte numbers in BAL", "setting": "[3]; highest dose (400 μg/kg s.c.)", "result": "significantly reduced"}, {"measurement": "macrophage numbers in BAL", "setting": "[3]; highest dose (400 μg/kg s.c.)", "result": "significantly reduced"}, {"measurement": "neutrophil numbers in BAL", "setting": "[3]; highest dose (400 μg/kg s.c.)", "result": "significantly reduced"}, {"measurement": "cigarette smoke induced increase in total cell number recovered in the BAL", "setting": "[3]; s.c. 4, 40 and 400 μg/kg at +30 min and +6 h, BAL 24 h after last exposure", "result": "dose dependently inhibited"}, {"measurement": "total cell infiltrates in BAL", "setting": "[4]; 400 μg/kg s.c. twice a day, daily and every other day, 11-day smoke", "result": "Significant effect"}, {"measurement": "epithelial cells numbers in BAL", "setting": "[4]; [8]", "result": "significantly reduced"}, {"measurement": "neutrophil numbers in BAL", "setting": "[4]; [8]", "result": "significantly reduced"}, {"measurement": "lymphocyte numbers in BAL", "setting": "[4]; [9]", "result": "significant reduction"}, {"measurement": "macrophage numbers in BAL", "setting": "[4]; [9]", "result": "significant reduction"}, {"measurement": "activity on mixed cell infiltration, twice a day vs once a day", "setting": "[4]; 400 μg/kg subcutaneously, 11-day repeated exposure", "result": "comparable activity"}, {"measurement": "inhibitory effect compared with Roflumilast 5 mg/kg", "setting": "[4]; PA401 400 μg/kg s.c. twice and once a day, Roflumilast 5 mg/kg oral", "result": "comparable of that obtained with Roflumilast 5 mg/kg"}, {"measurement": "epithelial cells numbers in BAL", "setting": "[5]; 400 and 40 μg/kg daily s.c.", "result": "significant reduction"}, {"measurement": "lymphocyte numbers in BAL", "setting": "[5]; 400 and 40 μg/kg daily s.c.", "result": "significant reduction"}, {"measurement": "macrophage numbers in BAL", "setting": "[5]; 400 and 40 μg/kg daily s.c.", "result": "significant reduction"}, {"measurement": "neutrophil numbers in BAL", "setting": "[5]; 400 and 40 μg/kg daily s.c.", "result": "significant reduction"}, {"measurement": "total cell infiltrates in BAL", "setting": "[5]; 400 and 40 μg/kg daily s.c., 11-day smoke", "result": "Significant effect"}, {"measurement": "inhibitory effect compared with Roflumilast and CXCR2 antagonist SCH527123", "setting": "[5]; PA401 400 μg/kg daily s.c., Roflumilast 5 mg/kg oral, SCH527123 10 mg/kg twice a day oral", "result": "comparable of that obtained with Roflumilast 5 mg/kg and the CXCR2 antagonist SCH527123"}, {"measurement": "neutrophil number in BAL", "setting": "[6]; [10]", "result": "neutrophil number reduction"}, {"measurement": "total cells in BAL", "setting": "[6]; [10]", "result": "significant dose dependent reduction"}, {"measurement": "activity on BAL cell counts at single doses", "setting": "[6]; i.t. doses of 100, 40 and 10 μg/kg", "result": "significantly active"}, {"measurement": "improved activity of therapeutic treatment (t=+1 h) compared to prophylactic treatment (-1 h)", "setting": "[6]; i.t., BAL 8 h post LPS", "result": "about 10%"}]}]}
